Data on 2 molecules can be found in publication PMC10397247.

Holding throughout (experiment): two-hybrid library CCmax;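 note: natural log of median RNA to DNA barcode read ratio; higher means stronger binding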
One experiment deals with T1, 4H675-AA.
T1 chain: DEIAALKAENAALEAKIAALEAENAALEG
The following applies: mean of both orientations.

The next experiment concerns the target T2, 4H3666-AA.
T2 chain: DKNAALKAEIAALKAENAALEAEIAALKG
The following applies: mean of both orientations.

The target of the next experiment is T3, 4H3709-AA.
T3 chain: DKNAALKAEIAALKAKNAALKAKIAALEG
The following applies: mean of both orientations.

The target in another experiment is T4, 4H391-AA.
T4 chain: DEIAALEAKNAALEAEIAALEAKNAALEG
The following applies: mean of both orientations.

In the next experiment the target is T5, 4H3446-AA.
T5 chain: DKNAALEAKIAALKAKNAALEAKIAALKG
The following applies: mean of both orientations.

The next experiment deals with T6, 4H428-AA.
T6 chain: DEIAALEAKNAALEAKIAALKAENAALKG
The following applies: mean of both orientations.

For the next experiment, the target named is T7, 4H3628-AA.
T7 chain: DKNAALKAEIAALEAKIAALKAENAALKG
The following applies: mean of both orientations.

For another experiment, the target named is T8, 4H656-AA.
T8 chain: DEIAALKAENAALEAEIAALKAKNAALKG
The following applies: mean of both orientations.

Another experiment addresses T9, 4H3920-AA.
T9 chain: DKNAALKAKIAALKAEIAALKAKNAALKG
The following applies: mean of both orientations.

The target in another experiment is T10, 4H3591-AA.
T10 chain: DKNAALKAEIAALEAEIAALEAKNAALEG
The following applies: mean of both orientations.

The target in another experiment is T11, 4H478-AA.
T11 chain: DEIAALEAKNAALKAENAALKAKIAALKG
The following applies: mean of both orientations.

In another experiment the target is T12, 4H497-AA.
T12 chain: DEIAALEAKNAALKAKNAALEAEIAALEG
The following applies: mean of both orientations.

A further experiment has as its target T13, 4H3417-AA.
T13 chain: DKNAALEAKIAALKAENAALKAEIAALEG

In another experiment the target is T14, 4H3939-AA.
T14 chain: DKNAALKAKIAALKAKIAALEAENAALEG
The following applies: mean of both orientations.

The next experiment has as its target T15, 4H971-AA.
T15 chain: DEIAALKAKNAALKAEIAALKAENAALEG
The following applies: mean of both orientations.

A further experiment addresses T16, 4H710-AA.
T16 chain: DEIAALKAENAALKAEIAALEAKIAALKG
The following applies: mean of both orientations.

A further experiment deals with T17, 4H3395-AA.
T17 chain: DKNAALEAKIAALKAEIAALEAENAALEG
The following applies: mean of both orientations.

The target in a further experiment is T18, 4H3697-AA.
T18 chain: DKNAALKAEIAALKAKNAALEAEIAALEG
The following applies: mean of both orientations.

Another experiment addresses T19, 4H570-AA.
T19 chain: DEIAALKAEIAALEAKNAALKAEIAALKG
The following applies: mean of both orientations.

The target in a further experiment is T20, 4H3130-AA.
T20 chain: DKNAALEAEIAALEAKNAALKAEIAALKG
The following applies: mean of both orientations.

A further experiment deals with T21, 4H3590-AA.
T21 chain: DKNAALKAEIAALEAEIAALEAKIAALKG
The following applies: mean of both orientations.

For the next experiment, the target named is T22, 4H2698-AA.
T22 chain: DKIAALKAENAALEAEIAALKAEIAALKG

The target of the next experiment is T23, 4H797-AA.
T23 chain: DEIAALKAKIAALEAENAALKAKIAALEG
The following applies: mean of both orientations.

In the next experiment the target is T24, 4H485-AA.
T24 chain: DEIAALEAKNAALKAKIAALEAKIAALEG
The following applies: mean of both orientations.

In another experiment the target is T25, 4H3381-AA.
T25 chain: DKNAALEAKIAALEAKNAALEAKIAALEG
The following applies: mean of both orientations.

Another experiment addresses T26, 4H3120-AA.
T26 chain: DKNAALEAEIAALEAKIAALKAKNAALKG
The following applies: mean of both orientations.

The target in the next experiment is T27, 4H3865-AA.
T27 chain: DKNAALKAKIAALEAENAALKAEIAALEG
The following applies: mean of both orientations.

Another experiment addresses T28, 4H2725-AA.
T28 chain: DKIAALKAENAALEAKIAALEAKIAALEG
The following applies: mean of both orientations.

The target in the next experiment is T29, 4H745-AA.
T29 chain: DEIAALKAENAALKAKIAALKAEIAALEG
The following applies: mean of both orientations.

The next experiment concerns the target T30, 4H3016-AA.
T30 chain: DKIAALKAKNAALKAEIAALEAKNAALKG
The following applies: mean of both orientations.

Another experiment deals with T31, 4H930-AA.
T31 chain: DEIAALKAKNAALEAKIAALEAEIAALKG
The following applies: mean of both orientations.

In another experiment the target is T32, 4H310-AA.
T32 chain: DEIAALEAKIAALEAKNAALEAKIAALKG
The following applies: mean of both orientations.

The next experiment has as its target T33, 4H909-AA.
T33 chain: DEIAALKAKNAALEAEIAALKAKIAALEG
The following applies: mean of both orientations.

The next experiment concerns the target T34, 4H3410-AA.
T34 chain: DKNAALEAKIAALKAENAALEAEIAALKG
The following applies: mean of both orientations.

The next experiment concerns the target T35, 4H458-AA.
T35 chain: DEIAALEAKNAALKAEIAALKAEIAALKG
The following applies: mean of both orientations.

The target in another experiment is T36, 4H850-AA.
T36 chain: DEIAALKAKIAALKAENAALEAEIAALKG
The following applies: mean of both orientations.

The target of a further experiment is T37, 4H891-AA.
T37 chain: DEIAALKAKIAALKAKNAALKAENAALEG
The following applies: mean of both orientations.

The target of another experiment is T38, 4H3165-AA.
T38 chain: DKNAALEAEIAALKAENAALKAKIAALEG
The following applies: mean of both orientations.

In another experiment the target is T39, 4H3009-AA.
T39 chain: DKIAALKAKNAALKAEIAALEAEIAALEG
The following applies: mean of both orientations.

The target of a further experiment is T40, 4H94-AA.
T40 chain: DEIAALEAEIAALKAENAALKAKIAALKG
The following applies: mean of both orientations.

A further experiment deals with T41, 4H3753-AA.
T41 chain: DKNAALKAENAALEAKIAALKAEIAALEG
The following applies: mean of both orientations.

A further experiment concerns the target T42, 4H536-AA.
T42 chain: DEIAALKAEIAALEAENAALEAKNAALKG
The following applies: mean of both orientations.

In a further experiment the target is T43, 4H629-AA.
T43 chain: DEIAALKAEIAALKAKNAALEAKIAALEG
The following applies: mean of both orientations.

A further experiment deals with T44, 4H2865-AA.
T44 chain: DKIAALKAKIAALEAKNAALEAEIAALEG
The following applies: mean of both orientations.

Take DKNAALEAKIAALKAENAALKAEIAALEG [4H3417-AA]: the interaction score in the experiment with 4H675-AA was -0.587; in the experiment with 4H3666-AA it was 1.09; in the experiment with 4H3709-AA, -0.223; in the experiment with 4H391-AA, -1.68; in the experiment with 4H3446-AA, -0.679; with 4H428-AA, -0.935. Further, the interaction score with 4H3628-AA was -1.29; with 4H656-AA, 0.318; with 4H3920-AA, -1.61; with 4H3591-AA it was -1.37; with 4H478-AA it was 0.524; with 4H497-AA, -1.9. Further, the interaction score in the experiment with 4H3417-AA is 0.336; with 4H3939-AA, -1.87; with 4H971-AA, -1.03.
For the molecule DKIAALKAENAALEAEIAALKAEIAALKG [4H2698-AA], the interaction score with 4H710-AA was 1.79; with 4H3395-AA it was -1.65; in the experiment with 4H3697-AA, -1.12; with 4H570-AA, 0.35; in the experiment with 4H3130-AA, 1.19; with 4H3590-AA, -0.95. In addition, the interaction score with 4H2698-AA is 2.27; with 4H797-AA it was -1.25; with 4H485-AA, 1.49; in the experiment with 4H3381-AA, -0.904; with 4H3120-AA, -1.3; in the experiment with 4H3865-AA it was -1.07. Besides, the interaction score is -1.02 in the experiment with 4H2725-AA; 2.2 with 4H745-AA; 0.539 with 4H3016-AA; -0.113 with 4H930-AA; -0.185 with 4H310-AA; -0.0319 with 4H909-AA. In addition, the interaction score with 4H3410-AA was -1.56; in the experiment with 4H458-AA, 2.26; with 4H850-AA, -0.992; with 4H891-AA, -1.59; with 4H3165-AA, -1.39; in the experiment with 4H3009-AA, 2.02. Moreover, the interaction score was -0.915 with 4H94-AA; -1 in the experiment with 4H3753-AA; -1.49 with 4H536-AA; -1.54 in the experiment with 4H629-AA; 0.889 with 4H2865-AA.
